B1: DAP-1 (TraesCS1D02G226100 promoter, CHLG) (dsDNA)
DNA 1: TTATATGCCTATATGATATTATGATTTATTTGGTTT
DNA 2: AAACCAAATAAATCATAATATCATATAGGCATATAA
B2: DAP-4 (TraesCS3B02G186700 promoter) (dsDNA)
DNA 1: AATAGAAAATTACTGATATTTCATCCTTATGAGATT
DNA 2: AATCTCATAAGGATGAAATATCAGTAATTTTCTATT
B3: DAP-2 (TraesCS1D02G295200 promoter) (dsDNA)
DNA 1: AAATAGAAAATTACTGATATTTCATCCTTGTGTGAT
DNA 2: ATCACACAAGGATGAAATATCAGTAATTTTCTATTT
B4: DAP-3 (TraesCS2B02G491700 promoter) (dsDNA)
DNA 1: CTTCAGATTTGTTGATATTTTCATATTGCAGACAT
DNA 2: ATGTCTGCAATATGAAAATATCAACAAATCTGAAG

Columns and labels:
[1] = molecular target: MBP-TaCCA1-7D fusion protein (Triticum aestivum (bread wheat)); test: BLI; ForteBio Octet RED 96e; streptavidin (SA) biosensors loaded with 10.0 ug/ml biotinylated recombinant TaCCA1-7D; TaCCA1-7A or TaCCA1-7B in solution at 10-630 nM, low to high concentration; KD as the ratio of dissociation and association rate constants
MBP-TaCCA1-7D [2] = molecular target: T1, MBP-TaCCA1-7D (Triticum aestivum, UniProt A0A3B6TKA2 1-718); test: BLI; kon 1.35E+05 1/Ms; koff 2.42E-04 1/s; EMSA: 150 ng protein, 2 pM DIG probe, 10 ul, 1 h on ice, 6% PAGE in 0.5x TBE pH 8.0; BLI: Octet RED96e, SA sensors with biotinylated TaCCA1-7D; buffers not stated; settings: protein: recombinant; tags: MBP (pMAL-c2X, N-terminal); biotinylated for BLI; label: 5' biotin; blunt
T1 sequence (A0A3B6TKA2 entry or part of it): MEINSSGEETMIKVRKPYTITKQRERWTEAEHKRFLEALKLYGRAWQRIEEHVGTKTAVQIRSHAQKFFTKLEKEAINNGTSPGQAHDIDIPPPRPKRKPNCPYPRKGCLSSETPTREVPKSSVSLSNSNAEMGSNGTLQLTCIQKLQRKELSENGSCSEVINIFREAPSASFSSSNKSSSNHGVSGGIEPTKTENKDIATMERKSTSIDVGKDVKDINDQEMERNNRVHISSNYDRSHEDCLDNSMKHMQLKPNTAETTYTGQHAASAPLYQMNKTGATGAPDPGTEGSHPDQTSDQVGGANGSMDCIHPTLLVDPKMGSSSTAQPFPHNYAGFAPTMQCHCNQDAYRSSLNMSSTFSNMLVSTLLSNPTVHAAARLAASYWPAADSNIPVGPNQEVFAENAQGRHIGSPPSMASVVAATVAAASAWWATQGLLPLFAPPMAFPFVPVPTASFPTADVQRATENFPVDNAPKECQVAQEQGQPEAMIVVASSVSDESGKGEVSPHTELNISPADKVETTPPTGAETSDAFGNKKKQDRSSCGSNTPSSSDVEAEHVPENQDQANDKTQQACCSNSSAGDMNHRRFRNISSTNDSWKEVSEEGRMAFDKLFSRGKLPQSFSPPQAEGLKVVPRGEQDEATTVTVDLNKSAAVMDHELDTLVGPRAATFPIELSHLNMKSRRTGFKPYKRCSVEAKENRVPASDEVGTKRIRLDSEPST

MBP-TaCCA1-7D [3] = molecular target: T1, MBP-TaCCA1-7D; test: BLI; single-digit nM per text; exact value in Table S6 not in material; EMSA: 150 ng protein, 2 pM DIG probe, 10 ul, 1 h on ice, 6% PAGE in 0.5x TBE pH 8.0; BLI: Octet RED96e, SA sensors with biotinylated TaCCA1-7D; buffers not stated; settings: protein: recombinant, tags: MBP (pMAL-c2X, N-terminal), biotinylated for BLI, blunt
[4] = label: 5' biotin (BLI), DIG (EMSA)

Molecule | Kd [1] | koff [1] | kon [1] | Kd (MBP-TaCCA1-7D [3]; [4]) | further results
TaCCA1-7A (natural protein) | 27.8 nM | 0.0012 s⁻¹ | 43000 M⁻¹ s⁻¹ | – | –
TaCCA1-7B (natural protein) | 3.6 nM | 0.00133 s⁻¹ | 368000 M⁻¹ s⁻¹ | – | –
B1 | – | – | – | – | Kd (MBP-TaCCA1-7D [2]): 1.79 nM
B2 | – | – | – | – | Kd (MBP-TaCCA1-7D [3]; label: 5' biotin): < 10 nM
B3 | – | – | – | < 10 nM | –
B4 | – | – | – | < 10 nM | –
